Tests used:
[1] = target: human uPAR expressed on the cell surface (human) (UniProt Q03405); test: flow cytometry on 293T cells, isotype control (background)
[2] = target: human uPAR expressed on the cell surface (human) (UniProt Q03405); test: flow cytometry on A375 cells, isotype control (background)
[3] = target: human uPAR expressed on the cell surface (human) (UniProt Q03405); test: flow cytometry on 293T-uPAR cells, isotype control (background)

human uPAR expressed on the cell surface (human), sequence (Q03405 23-305): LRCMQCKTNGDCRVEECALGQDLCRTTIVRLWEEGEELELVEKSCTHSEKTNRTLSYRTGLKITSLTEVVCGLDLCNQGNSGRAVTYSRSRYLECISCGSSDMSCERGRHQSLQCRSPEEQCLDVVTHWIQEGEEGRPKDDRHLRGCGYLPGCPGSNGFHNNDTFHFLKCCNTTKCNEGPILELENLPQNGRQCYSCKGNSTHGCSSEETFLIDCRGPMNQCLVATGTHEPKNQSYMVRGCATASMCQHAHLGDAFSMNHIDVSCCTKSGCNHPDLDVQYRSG

- MFI [1]: 62
- MFI [2]: 71.3
- MFI [3]: 46.4
Substance: isotype antibody

From US20240417485A1
